T1: human CD39 protein (recombinant) (human, UniProt P49961 38-478, limits assumed)
T1 construct: Soluble recombinant protein coated on ELISA plates and used in the protein-based ATPase assay; also called recombinant CD39 protein; recombinant purified human CD39 protein
T1 sequence: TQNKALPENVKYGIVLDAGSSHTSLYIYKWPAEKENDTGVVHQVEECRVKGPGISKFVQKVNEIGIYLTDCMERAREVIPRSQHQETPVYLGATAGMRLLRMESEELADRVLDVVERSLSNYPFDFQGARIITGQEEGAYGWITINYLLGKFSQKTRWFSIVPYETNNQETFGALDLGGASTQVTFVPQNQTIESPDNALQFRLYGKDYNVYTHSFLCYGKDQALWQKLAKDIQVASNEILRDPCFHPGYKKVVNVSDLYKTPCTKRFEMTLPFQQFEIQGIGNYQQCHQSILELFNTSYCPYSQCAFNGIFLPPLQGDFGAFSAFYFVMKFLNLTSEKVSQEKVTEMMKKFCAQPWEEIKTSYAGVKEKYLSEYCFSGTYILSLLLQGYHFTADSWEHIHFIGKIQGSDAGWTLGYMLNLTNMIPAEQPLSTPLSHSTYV

T2: cynomolgus monkey CD39 on CHO-K1 cells (cynomolgus monkey, UniProt A0A7N9DGH8 1-510)
T2 construct: whole, on cells; also called CHO-K1-cyCD39; CHO-K1-cyno CD39
T2 sequence: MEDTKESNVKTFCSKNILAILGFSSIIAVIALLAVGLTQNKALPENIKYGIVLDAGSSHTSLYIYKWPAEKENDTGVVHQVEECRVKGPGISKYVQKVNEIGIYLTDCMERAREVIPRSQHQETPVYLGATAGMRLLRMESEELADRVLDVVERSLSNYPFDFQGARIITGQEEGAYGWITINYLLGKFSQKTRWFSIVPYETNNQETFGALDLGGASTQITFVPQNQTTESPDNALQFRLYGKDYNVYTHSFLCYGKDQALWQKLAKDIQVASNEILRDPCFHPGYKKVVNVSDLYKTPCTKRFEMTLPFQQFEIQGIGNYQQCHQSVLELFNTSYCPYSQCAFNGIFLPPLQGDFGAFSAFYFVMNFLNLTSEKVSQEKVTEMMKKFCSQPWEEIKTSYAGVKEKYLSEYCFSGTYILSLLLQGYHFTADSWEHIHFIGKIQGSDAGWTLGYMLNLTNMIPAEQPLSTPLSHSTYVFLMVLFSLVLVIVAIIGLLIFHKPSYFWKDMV

T3: human CD39 on the cell membrane (CHO-K1-human CD39 stable cell line); SK-MEL-28 melanoma cells; human CD4+ T … (human, UniProt P49961 1-510)
T3 sequence: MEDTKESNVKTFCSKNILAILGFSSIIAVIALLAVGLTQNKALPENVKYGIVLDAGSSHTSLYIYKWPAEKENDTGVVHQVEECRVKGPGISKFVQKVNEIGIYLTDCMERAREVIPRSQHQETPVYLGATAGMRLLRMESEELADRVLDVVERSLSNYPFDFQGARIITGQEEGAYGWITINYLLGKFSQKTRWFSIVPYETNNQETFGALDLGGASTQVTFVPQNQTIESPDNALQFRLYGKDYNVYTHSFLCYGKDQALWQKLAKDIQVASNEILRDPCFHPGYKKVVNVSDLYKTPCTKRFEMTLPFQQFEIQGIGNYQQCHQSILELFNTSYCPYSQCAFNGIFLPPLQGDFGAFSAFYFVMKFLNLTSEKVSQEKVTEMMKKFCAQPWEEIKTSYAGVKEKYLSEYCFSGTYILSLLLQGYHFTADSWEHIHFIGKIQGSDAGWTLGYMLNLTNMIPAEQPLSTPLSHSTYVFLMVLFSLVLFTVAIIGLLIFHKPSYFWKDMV

T4: huCD39-ECD-His (human, UniProt P49961 38-478)
T4 construct: also called C-terminally hexahistidine-tagged human CD39 extracellular domain
T4 sequence: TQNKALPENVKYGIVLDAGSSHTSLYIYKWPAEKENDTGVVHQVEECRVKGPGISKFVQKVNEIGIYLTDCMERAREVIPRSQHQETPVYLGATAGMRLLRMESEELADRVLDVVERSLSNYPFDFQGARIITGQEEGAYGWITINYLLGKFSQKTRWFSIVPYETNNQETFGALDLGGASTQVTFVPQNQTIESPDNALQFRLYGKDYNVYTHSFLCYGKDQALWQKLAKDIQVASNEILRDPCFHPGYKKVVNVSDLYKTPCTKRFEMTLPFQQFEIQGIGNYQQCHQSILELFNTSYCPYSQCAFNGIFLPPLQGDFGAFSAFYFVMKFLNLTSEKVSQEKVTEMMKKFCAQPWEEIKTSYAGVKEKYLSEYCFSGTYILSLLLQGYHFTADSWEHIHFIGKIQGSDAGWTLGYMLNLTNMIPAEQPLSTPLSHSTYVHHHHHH


Assays:
[1] = target: T1, human CD39 protein (recombinant); assay: ELISA on coated human CD39 protein
Description: To determine if anti-CD39 mAbs bind to human CD39, ELISA plates were incubated overnight at 4° C. with human CD39 protein or mouse CD39 protein diluted in PBS, pH7.4 buffer at 1 μg/ml. Plates were washed four times in washing buffer (PBS containing 0.05% Tween 20), and blocked for 1 hour at 37° C. with 200 μl per well blocking buffer (1% BSA in PBS containing 0.05% Tween 20). After blocking buffer was removed, hybridoma supernatant or diluted purified Abs were added to the wells at 100 μl per well and incubated at 37° C. for 1 hour. The wells were washed four times with washing buffer, and anti-mouse HRP (for mouse anti-human CD39 Ab characterization) or anti-rat HRP (for rat anti-mouse CD39 Ab characterization) (Sigma) were 1:5000 diluted and added to the wells at 100 μl per well. The plates were incubated for 1 hour at 37° C. and washed four times in washing buffer. 100 μl of tetramethylbenzidine (TMB) chromogenic solution were added per well. Following color development, the reaction was stopped with 1N HCl, and absorbance at 450 nm was measured. The data were proceeded by GraphPad software.
Humanized antibodies HuEM04-38-6 to HuEM0004-38-20 and chimeric antibodies EM04-38c, EM004-38c1, and EM0004-38c2 were tested for CD39 specific binding by ELISA as described in Example 1.2 and for inhibition of protein-based ATPase activity as described in Example 1.3.

[2] = target: T1, human CD39 protein (recombinant); assay: cell-based or functional assay
[3] = target: T2, cynomolgus monkey CD39 on CHO-K1 cells; assay: FACS on CHO-K1-cyno CD39 cells
Description: (§1) The ability of the purified antibodies to bind to cell membrane human CD39, cynomolgus monkey CD39, or mouse CD39 was determined by FACS analysis. CHO-K1 cells stably transfected to overexpress human CD39, cynomolgus monkey CD39, or mouse CD39 (CHO-K1-huCD39 cells, CHO-K1-cyCD39 cells, and CHOK1-muCD39 cells) were generated for use in this assay. Briefly, SK-MEL-28 melanoma cells (ATCC) or CD39 overexpressing stable CHO cell lines were resuspended in PBS containing 2% FBS (FACS buffer) and seeded at 1-5×10⁵ cells/well into U-bottomed plates. Anti-CD39 mAbs or isotype control antibodies diluted in FACS buffer were added to the wells and incubated for 1 hour at 4° C. After washing with FACS buffer, 1:1000 diluted Fluorescence-labeled secondary antibody (Life Technologies/ThermoFisher Scientific) were added and incubated for 30 min. at 4° C. Unbound secondary mAb was removed by washing with FACS buffer three times, and the samples were then read on a FACS instrument. The data were processed by GraphPad software.
(§2) Accordingly, a G55A mutation was introduced in the CDR-H2 in HuEM0004-38-17, -18, and -19 to generate HuEM0004-38-21 (SEQ ID NO:32 (VH) and SEQ ID NO:17 (VK)), HuEM0004-38-22 (SEQ ID NO:33 (VH) and SEQ ID NO:17 (VK)), and HuEM0004-38-23 (SEQ ID NO:34 (VH) and SEQ ID NO:17 (VK)). The three humanized anti-CD39 antibodies were characterized by FACS binding assay and for cell-based inhibition of ATPase activity.

[4] = target: T3, human CD39 on the cell membrane …; assay: cell-based or functional assay
huCD39-ECD-His = target: T4, huCD39-ECD-His; assay: BLI (Octet RED96), antibody captured on AHC biosensor, antigen in solution
Description: Anti-CD39 antibodies were characterized for affinities and binding kinetics using the Octet®RED96 biolayer interferometry system (Pall FortéBio LLC). Purified anti-CD39 antibodies were captured by Anti-Mouse IgG Fc Capture (AMC) biosensors or Anti-Human IgG Fc Capture (AHC) biosensors at a concentration of 100 nM for 30 seconds. Biosensors were then dipped into running buffer (1X pH7.2 PBS, 0.05% Tween 20, 0.1% BSA) for 60 seconds to check baseline. Binding was measured by dipping sensors into purified recombinant human CD39 protein, 3-fold serial diluted from 200 nM, for 120 seconds. Dissociation was followed by dipping sensors into running buffer for 600 seconds. The association and dissociation curves were fitted to a 1:1 Langmuir binding model using Fortebio Data Analysis software (Pall FortéBio LLC).

[5] = target: T3, human CD39 on the cell membrane …; assay: FACS on CHO-K1-human CD39 cells
Description: as §1, §2

[6] = target: T3, human CD39 on the cell membrane …; assay: cell-based or functional assay; remark: listed apart in the source
[7] = target: T3, human CD39 on the cell membrane …; assay: FACS on SK-MEL-28 cells (endogenous human CD39)
Description: as §1, §2

| EC50 [1] | ATPase inhibition IC50 [2] | ATPase inhibition, inhibition % [2] | EC50 [3] | cell-based CD39 ATPase inhibition assay (SK-MEL-28 cells), concentration of essentially complete inhibition [4] | Kd (huCD39-ECD-His) | koff (huCD39-ECD-His) | kon (huCD39-ECD-His) | EC50 [5] | IC50 (read off the curve), cell-surface hCD39 ATPase activity [6] | EC50 [7] | Binder |
| --- | --- | --- | --- | --- | --- | --- | --- | --- | --- | --- | --- |
| 0.023 µg/mL | 15.6 nM | 102% |  |  |  |  |  |  |  |  | EM0004-38c1 (antibody, human IgG1, kappa, L234A L235A, name in Kabat numbering, V domains shown, chimeric mAb638 variant; also called EM004-38c1) VH: QVQLQQPGTELVKPGASVKLSCKASGYTFTSFWMHWVKQRPGQGLEWIGNINPRQGATKYNEKFRSKVTLTADKTSSTAYMHLSSLTSEDSAVYYCAREDYDEIYYAMDSWGQGTSVTVSS VL: QNVLTQSPAIMSASPGEKVTMTCSASSSVIYMYWFQQKPGSSPRVLIYDTSNLASGVPARFSGSGSGTSYSLTISRMEAEDAATYYCQQWSTYPLTFGAGTKLELKR |
| 0.016 µg/mL | 14.3 nM | 103% |  |  |  |  |  |  |  |  | EM0004-38c2 (antibody, human IgG1, kappa, L234A L235A, name in Kabat numbering, V domains shown, chimeric mAb638 variant) VH: QVQLQQPGTELVKPGASVKLSCKASGYTFTSFWMHWVKQRPGQGLEWIGNINPRNAATKYNEKFRSKVTLTADKTSSTAYMHLSSLTSEDSAVYYCAREDYDEIYYAMDSWGQGTSVTVSS VL: QNVLTQSPAIMSASPGEKVTMTCSASSSVIYMYWFQQKPGSSPRVLIYDTSNLASGVPARFSGSGSGTSYSLTISRMEAEDAATYYCQQWSTYPLTFGAGTKLELKR |
|  |  |  | 7.42 nM | ~1 nM | 2.53 nM | 0.000348 s⁻¹ | 138000 M⁻¹ s⁻¹ | 7.21 nM | ~0.2 nM | 4.71 nM | HuEM0004-38-22 (antibody, human IgG1, kappa, L234A L235A, V domains shown, humanized mAb638 with G55A) VH: EVQLVQSGAEVKKPGASVKVSCKASGYTFTSFWMHWVRQAPGQGLEWMGNINPRNAATKYNEKFRSRVTLTADKSISTAYMELSRLRSDDTAVYYCAREDYDEIYYAMDSWGQGTTVTVSS VL: ENVLTQSPATLSLSPGERATLSCSASSSVIYMYWFQQKPGQSPRVLIYDTSNLASGVPARFSGSGSGTDYTLTISSLEPEDFAVYYCQQWSTYPLTFGQGTKLEIKR |
|  |  |  | 7.18 nM | ~1 nM | 2.55 nM | 0.000365 s⁻¹ | 143000 M⁻¹ s⁻¹ | 8.36 nM | ~0.2 nM | 5.47 nM | HuEM0004-38-23 (antibody, human IgG1, kappa, L234A L235A, V domains shown, humanized mAb638 with G55A) VH: EVQLVQSGAEVKKPGASVKVSCKASGYTFTSFWMHWVRQAPGQGLEWIGNINPRNAATKYNEKFRSRVTLTADKSISTAYMELSRLRSDDTAVYYCAREDYDEIYYAMDSWGQGTTVTVSS VL: ENVLTQSPATLSLSPGERATLSCSASSSVIYMYWFQQKPGQSPRVLIYDTSNLASGVPARFSGSGSGTDYTLTISSLEPEDFAVYYCQQWSTYPLTFGQGTKLEIKR |
|  |  |  | 6.14 nM | ~1 nM | 2.28 nM | 0.000316 s⁻¹ | 139000 M⁻¹ s⁻¹ | 6.34 nM | ~0.2 nM | 4.75 nM | HuEM0004-38-21 (antibody, human IgG1, kappa, L234A L235A, V domains shown, humanized mAb638 with G55A) VH: EVQLVQSGAEVKKPGASVKVSCKASGYTFTSFWMHWVRQAPGQGLEWMGNINPRNAATKYNEKFRSRVTMTADKSISTAYMELSRLRSDDTAVYYCAREDYDEIYYAMDSWGQGTTVTVSS VL: ENVLTQSPATLSLSPGERATLSCSASSSVIYMYWFQQKPGQSPRVLIYDTSNLASGVPARFSGSGSGTDYTLTISSLEPEDFAVYYCQQWSTYPLTFGQGTKLEIKR |

From patent publication US20220389111A1 (SHANGHAI EPIMAB BIOTHERAPEUTICS, published 2022)
